B1: RBD-1C (CoV2-RBD-1) (ssDNA)
DNA: CAGCACCGACCTTGTGCTTTGGGAGTGCTGGTCCAAGGGCGTTAATGGACA
modifications: 5'-amino-modifier C6
B2: RBD-1CM1 (ssDNA)
DNA: CAGCACCGACCTTGTGCTTTGGGAGTGCTGGTCTAAGGGCGTTAATAGACA
modifications: 5'-amino-modifier C6
B3: RBD-1CM2 (ssDNA)
DNA: CAGCACCGACCTTGTGCTTTGGGAGTGCTGGTCCAAGGGCCTTGATGGACA
modifications: 5'-amino-modifier C6

This series deals with SARS-CoV-2 spike protein S1 subunit (SARS-CoV-2, UniProt P0DTC2 14-685). In words: QCM. The settings on record: protein: commercial.
B1: the Ka was 1 10^5 M-1.

On to B2, for which the Ka is 1.2 10^5 M-1.

As for B3, the Ka is 1.2 10^5 M-1.
